The text below walks through data of paper PMC3328272, “HIV-1 Nef interaction influences the ATP-binding site of the Src-family kinase, Hck” (BMC Chemical Biology, 2012).

For experiment [1], the target named is wild-type human Hck SH3 domain (human) (UniProt P08631). Kind of experiment: SPR.
For experiment [2], the target named is mouse Hck SH3 domain with High Affinity RT loop (HART) (mouse) (UniProt P08103). Kind of experiment: SPR.
Experiment [3] concerns the target wild-type mouse Hck SH3 domain (mouse) (UniProt P08103). Kind of experiment: SPR.
Experiment [4] has as its target mouse Hck SH3 domain with High Affinity RT loop (HART) (mouse) (UniProt P08103). The experiment is described as follows: HDX-MS; SH3 (50 uM) and Nef-Consensus (117 uM) equilibrated at 4 C for at least 110 min in 20 mM Tris-HCl pH 8.3, 100 mM NaCl, 3 mM DTT; 15-fold dilution into D2O buffer; intact-protein MS; SH3 cooperative unfolding rate free and with Nef (slowdown factor).

The target in experiment [5] is wild-type mouse Hck SH3 domain (mouse) (UniProt P08103). Described as above.
Chain of wild-type mouse Hck SH3 domain (mouse) (P08103 76-136): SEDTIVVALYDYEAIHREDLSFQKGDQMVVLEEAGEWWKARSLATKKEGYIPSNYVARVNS

Chain of HIV-1 Nef-SF2, untagged (P03407 whole entry): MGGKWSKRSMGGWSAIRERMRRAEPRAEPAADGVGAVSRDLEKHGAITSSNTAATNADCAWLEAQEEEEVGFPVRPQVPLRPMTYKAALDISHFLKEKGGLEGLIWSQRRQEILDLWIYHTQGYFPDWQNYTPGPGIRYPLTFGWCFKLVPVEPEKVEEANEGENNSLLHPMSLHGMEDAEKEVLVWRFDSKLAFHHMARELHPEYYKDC
Chain of wild-type human Hck SH3 domain (human) (P08631 78-138): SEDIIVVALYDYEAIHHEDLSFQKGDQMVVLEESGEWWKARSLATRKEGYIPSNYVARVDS

As to HIV-1 Nef-Consensus, untagged, the figures for the dissociation constant (Kd) in experiment [1], in experiment [2] and in experiment [3] were 120 nM, 20 nM and 80 nM, respectively. The results for the koff in experiment [1], in experiment [2] and in experiment [3] were 0.118 s⁻¹, 0.0324 s⁻¹ and 0.0185 s⁻¹, respectively. The kon in experiment [1] was 1e+06 M⁻¹ s⁻¹; in experiment [2] it was 1.57e+06 M⁻¹ s⁻¹; in experiment [3] it was 241000 M⁻¹ s⁻¹. Also, the fold decrease in SH3 unfolding rate with Nef (slowdown factor) in experiment [4] was 50 fold; in experiment [5], 5.7 fold.

As for “HIV-1 Nef-SF2, untagged (from UniProt P03407) (natural protein)”, in experiment [2], the dissociation constant (Kd) is 10 nM, the koff is 0.0143 s⁻¹ and the kon amounted to 1.42e+06 M⁻¹ s⁻¹.
